Results from patent US20190367618A1 (SHANGHAI JUNSHI BIOSCIENCES, published 2019).
Where a chain is given by its changes, count along the chain named.

How the values were obtained:
hPD-L1-his = target: T1, hPD-L1-his (human, UniProt Q9NZQ7 19-238, limits assumed); assay: ELISA, hPD-L1-his coated, anti-human IgG (Fc-specific)-peroxidase detection
T1 construct: also called human PD-L1; not shown: his tag

[1] = target: T2, human PD-L1 (ELISA coat, construct not stated) (human, UniProt Q9NZQ7 19-238, limits assumed); assay: ELISA, PD-L1 coated
T2 construct: also called human PD-L1 protein
T2 sequence (Q9NZQ7 19-238 limits assumed): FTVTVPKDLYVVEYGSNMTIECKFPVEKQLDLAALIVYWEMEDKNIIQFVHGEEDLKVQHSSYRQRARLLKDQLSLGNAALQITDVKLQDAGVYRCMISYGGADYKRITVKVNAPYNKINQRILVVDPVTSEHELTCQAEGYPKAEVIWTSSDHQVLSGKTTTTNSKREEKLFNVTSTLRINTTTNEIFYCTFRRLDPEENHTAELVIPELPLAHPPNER
Protocol: A 96-well microtiter plate was plated, coated with PD-L1, and incubated at 37° C. for 60 minutes. The solution in the wells was then discarded, and the wells were washed 3 times with washing buffer, and blocked with PBS containing 2% BSA for 60 minutes. After washed 3 times with washing buffer, each well was added with 100 μl of biotin-labeled IgG4 antibody, incubated at 37° C. for 30 minutes, washed 3 times with washing buffer, then added with humanized antibodies of different dilutions, and incubated at 37° C. for 1 hour. After washed 3 times with washing buffer, the cells were incubated with HPR-labeled mouse anti-human IgG (H+L) (diluted 1:10000 with washing buffer) at room temperature for 1 hour, washed 3 times with washing buffer, and then added with 100 μl of TMB substrate for development. After reacting for 30 minutes at room temperature, the reaction was terminated with 100 μl of 2 M hydrochloric acid solution and the absorbance was read at 450 nm.

PD-L1 on CHO cells = PD-L1 on CHO cells (human, UniProt Q9NZQ7 19-290); assay: cell-based or functional assay
Chain of PD-L1 on CHO cells (Q9NZQ7 19-290): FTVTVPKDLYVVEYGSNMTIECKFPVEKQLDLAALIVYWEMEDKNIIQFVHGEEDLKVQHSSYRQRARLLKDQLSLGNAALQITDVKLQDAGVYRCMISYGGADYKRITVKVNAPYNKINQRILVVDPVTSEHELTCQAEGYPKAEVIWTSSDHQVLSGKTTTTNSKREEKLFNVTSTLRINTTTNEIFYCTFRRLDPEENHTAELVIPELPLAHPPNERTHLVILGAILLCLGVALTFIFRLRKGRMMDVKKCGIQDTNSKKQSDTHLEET

[2] = target: T3, human PD-L1 extracellular domain protein (human, UniProt Q9NZQ7 19-238, biotin (biotin-NHS, molar ratio 1:10) where used as biotin-labeled human PD-L1 (Examples 2, 3, 5, 12, 17)); assay: flow cytometry, inhibition of biotin-PD-L1 (1 µg/ml) binding to PD-1 on 293F cells
T3 construct: extracellular domain; About 75 kDa on SDS-PAGE; also called human PD-L1 recombinant protein; biotin-labeled human PD-L1
T3 sequence (Q9NZQ7 19-238): as the sequence (Q9NZQ7 19-238 limits assumed) above

PD-L1 on 293F cells = target: T4, PD-L1 on 293F cells (UniProt Q9NZQ7 19-290, limits assumed); assay: flow cytometry on 293F cells expressing PD-L1
T4 construct: whole, on cells
T4 sequence (Q9NZQ7 19-290 limits assumed): as the sequence (Q9NZQ7 19-290) above
Protocol: Antibody (humanized antibodies 30, 38) dilutions at different concentrations was added in a volume of 50 μl, mixed and incubated at room temperature for 30 min. The cells were washed twice with FACS buffer, contacted with 100 μl of goat anti-human IgG-PE antibody, and incubated for 30 min in the dark. FACS was performed after washing twice with FACS buffer.

[3] = target: T3, human PD-L1 extracellular domain protein; assay: ForteBio (BLI)

T1 sequence (Q9NZQ7 19-238 limits assumed): as the sequence (Q9NZQ7 19-238 limits assumed) above

Question: durvaluma (antibody) was tested. Which EC50 (hPD-L1-his) did it give?
Answer: 0.0216 µg/mL

B1: humanized antibody 38 (antibody, V domains shown)
VH: QGQLQESGPSLVKPSQTLSLTCTVSGDSITRGYWNWIRKPPGKGLEYIGYISYTGSTYSNLSLKSRVTISRDTSKNQYYLKLSSVTAADTAVYYCATSTGWLDPVDYWGQGTLVTVSS
VL: DIQMTQSPSSLSASVGDRVTITCRASQNVDTSVAWFQQKPGKAPKALIYSASFRYSGVPSRFSGSGSGTDFTLTISSLQPEDFATYFCQQYYGYPFTFGQGTKLEIK
Question: What does the source list for B1?
Answer: EC50 [1]: 0.000837 µg/mL; EC50, Jurkat fluorescein (PD-1/NFAT-luciferase reporter) analysis (PD-L1 on CHO cells): 0.082 µg/mL; IC50 [2]: 0.889 µg/mL; EC50 (PD-L1 on 293F cells): 0.348 µg/mL

B2: humanized antibody 30 (antibody, V domains shown)
VH: B1 VH with P40H
VL: DIVMTQSPDSLAVSLGERATINCKASQNVDTSVAWFQQKPGQPPKALIYSASFRYSGVPDRFSGSGSGTDFTLTISSLQAEDVAVYFCQQYYGYPFTFGQGTKLEIK
Question: How did the EC50 [1] turn out when B2 was run?
Answer: 0.000558 µg/mL

Question: What about the “EC50, Jurkat fluorescein (PD-1/NFAT-luciferase reporter) analysis” value (PD-L1 on CHO cells) of the same molecule?
Answer: 0.0782 µg/mL

Question: What about the IC50 [2] of the same molecule?
Answer: 0.647 µg/mL

Question: And the EC50 (hPD-L1-his)?
Answer: 0.0111 µg/mL

Question: And the EC50 (PD-L1 on 293F cells)?
Answer: 0.287 µg/mL

B3: clone 16 (murine antibody 16) (antibody, V domains shown)
VH: EVQLQQSGPELVKPGASVKMSCKASGYTFTNYVIHWVKQTPGQGLEWIGYINPNIDGGSYNEKFNGKAKMTSDKSSSTVHMELRSLTYEDFAVYYCAKPRGSWGQGTLVTVSA
VL: DIVLTQSPASLAVSLGQRATISCRASESVEFYGTSLMQWYQQKPGQPPKLLIYAASNVDSGVPARFSGSGSGTDFSLNIHPVEEDDIAMYFCQQGRHVPYTFGGGTKLEIK
notes: Murine hybridoma antibody
Question: How did the Kd [3] turn out when B3 was run?
Answer: 0.5 nM

B4: clone 21 (murine antibody 21) (antibody, V domains shown)
VH: EGQLQESGPSLVKPSQTLSLTCSVTGDSITRGYWNWIRKFPGNKFEYMGYISYTGSTYSNLSLKSRISITRDTSKNHYYLRLNSVTTEDTATYYCATSTGWLDPVDYWGQGTLVTVSA
VL: DIVMTQSRKFMSTSVGDRASVTCKASQNVDTSVAWFQQKPGQSPKALIYSASFRYSGVPDRFTGSGSGTDFTLTISNVQSEDLAEYFCQQYYGYPFTFGSGTKLEIK
notes: Murine hybridoma antibody
Question: B4 was tested. Which Kd [3] did it give?
Answer: 0.9 nM
